Reference: publication PMC6907008

Columns and labels:
[1] = target: T1, HisZea (Lmo2686) (Listeria monocytogenes EGD-e) (UniProt Q8Y3Z3); experiment: competition; settings: EMSA: 50 mM Tris pH 8.0, 300 mM NaCl, 10% glycerol, 50 ug/mL BSA, 1 ug yeast tRNA, 20 min room temperature; pull-down: 25 mM Tris pH 8.0, 150 mM KCl, 5 mM …
T1 sequence: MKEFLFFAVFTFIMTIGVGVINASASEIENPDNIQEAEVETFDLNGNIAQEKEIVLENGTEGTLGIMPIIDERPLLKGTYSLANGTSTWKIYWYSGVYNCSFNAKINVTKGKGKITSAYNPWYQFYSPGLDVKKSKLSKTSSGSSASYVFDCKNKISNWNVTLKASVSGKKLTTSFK

[2] = target: T1, HisZea (Lmo2686) (Listeria monocytogenes EGD-e); experiment: EMSA; settings: EMSA: 50 mM Tris pH 8.0, 300 mM NaCl, 10% glycerol, 50 ug/mL BSA, 1 ug yeast tRNA, 20 min room temperature; pull-down: 25 mM Tris pH 8.0, 150 mM KCl, 5 mM …

Row | Sequence | binding [1] | binding [2]
1 | GGAGUAGAAAAGACCAAUGUGGGUUCUUUUUUAUUUUGUCUUAAUAACUCUAAACCACAGACAAAUAUAAAUUGGAAAUCAACGUAAUAAUCGUAUUUCCUAUUACAAUAAUCGAGAUAUUGUCACACCCUGAAAUAUAAUUGUAAUGCAAUUAACCUAUAGAUGAAAAACUGU [rli143] | binds | binds
2 | GGGUGUAAAAUGCAGCUUGAGUAAAAUGAAUGAGUGUGUUGUUUACCCCCAGAUUUAAUUCUGUGGUAUAUCGCGUAACCGGCGGCUGCUAUGGUGAUGGUAUAUGAAGGUAAACUGCCCUGAUUUGGUUUUACGUCACGUUUGUUUUAUAC [rli92] | binds | binds
